As usually defined, the KM is the substrate concentration at which the rate is half of its maximum. For orientation: kcat means the maximal rate divided by the concentration of active sites. Broadly, the kcat/KM is the second-order rate constant that governs catalysis at low substrate concentration.

Data set [1] addresses Factor X (FX) zymogen, active site titrated and DFP/EGR-cmk treated, P00742.
Data set [2] concerns the target plasma purified human AT-III (antithrombin III), in complex with full-length unfractionated heparin (UFH). The data set can be described thus: ratio of K0.5 (lower-limit value) of the variant to K0.5 of Catalyst Biosciences WT FIXa, AT-III/UFH inhibition.
Data set [3] addresses plasma purified human antithrombin III (AT-III), in complex with unfractionated heparin (UFH). Description: ratio of K0.5 for AT-III/UFH inhibition, variant over Catalyst Biosciences WT FIXa.

Sequence of Factor X (FX), P00742 (P00742 whole entry, looked up): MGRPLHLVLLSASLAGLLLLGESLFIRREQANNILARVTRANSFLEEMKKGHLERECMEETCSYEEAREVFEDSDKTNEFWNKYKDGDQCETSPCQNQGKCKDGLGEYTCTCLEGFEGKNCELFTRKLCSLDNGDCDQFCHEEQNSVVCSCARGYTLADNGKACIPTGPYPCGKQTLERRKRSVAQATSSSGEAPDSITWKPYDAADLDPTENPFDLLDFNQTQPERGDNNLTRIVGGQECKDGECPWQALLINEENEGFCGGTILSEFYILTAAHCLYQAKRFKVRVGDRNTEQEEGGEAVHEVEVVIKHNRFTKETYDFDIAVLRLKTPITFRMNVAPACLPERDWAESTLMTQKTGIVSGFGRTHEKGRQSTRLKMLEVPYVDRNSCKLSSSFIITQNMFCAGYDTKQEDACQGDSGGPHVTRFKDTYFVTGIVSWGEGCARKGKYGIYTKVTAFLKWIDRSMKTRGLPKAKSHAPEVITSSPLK
Sequence of Factor X, P00742 (P00742 whole entry, looked up): as above
Sequence of Factor X (FX) zymogen, active site titrated and DFP/EGR-cmk treated, P00742 (P00742 whole entry, looked up): as above

B1: FIXa-K228N/K247N/N249S/R318Y/T343R/R403E/E410N (activated Factor IX variant, mature FIX numbering) (protein)
chain 1: YNSGKLEEFVQGNLERECMEEKCSFEEAREVFENTERTTEFWKQYVDGDQCESNPCLNGGSCKDDINSYECWCPFGFEGKNCELDVTCNIKNGRCEQFCKNSADNKVVCSCTEGYRLAENQKSCEPAVPFPCGRVSVSQTSKLTR
chain 2: VVGGEDAKPGQFPWQVVLNGKVDAFCGGSIVNEKWIVTAAHCVETGVNITVVAGEHNIEETEHTEQNRSVIRIIPHHNYNAAINKYNHDIALLELDEPLVLNSYVTPICIADKEYTNIFLKFGSGYVSGWGRVFHKGYSALVLQYLRVPLVDRATCLRSTKFRIYNNMFCAGFHEGGRDSCQGDSGGPHVTEVEGTSFLTGIISWGEECAMKGKYGIYTKVSEYVNWIKNKTKLT
In the case of B1, in data set [1], the “% of WT kcat/KM (against recombinant Catalyst Biosciences WT FIXa)” value amounted to 153%; the kcat/KM (catalytic activity for FX activation; Xase complex with FVIIIa, PC/PS vesicles and Ca2+; fluorogenic Spectrafluor FXa read-out) was found to be 7.1e+07 M⁻¹ s⁻¹.

B2: FIXa variant R318Y/R338E/T343R/N346Y/R403E/E410N (mature FIX numbering) (protein)
chain 1: YNSGKLEEFVQGNLERECMEEKCSFEEAREVFENTERTTEFWKQYVDGDQCESNPCLNGGSCKDDINSYECWCPFGFEGKNCELDVTCNIKNGRCEQFCKNSADNKVVCSCTEGYRLAENQKSCEPAVPFPCGRVSVSQTSKLTR
chain 2: VVGGEDAKPGQFPWQVVLNGKVDAFCGGSIVNEKWIVTAAHCVETGVKITVVAGEHNIEETEHTEQKRNVIRIIPHHNYNAAINKYNHDIALLELDEPLVLNSYVTPICIADKEYTNIFLKFGSGYVSGWGRVFHKGYSALVLQYLRVPLVDRATCLESTKFRIYYNMFCAGFHEGGRDSCQGDSGGPHVTEVEGTSFLTGIISWGEECAMKGKYGIYTKVSEYVNWIKNKTKLT
As for B2, the K0.5-mut/K0.5-wt in data set [2] was determined as 517.

B3: FIXa-Y155F/K247N/N249S/N260S (protein)
chain 1: YNSGKLEEFVQGNLERECMEEKCSFEEAREVFENTERTTEFWKQYVDGDQCESNPCLNGGSCKDDINSYECWCPFGFEGKNCELDVTCNIKNGRCEQFCKNSADNKVVCSCTEGYRLAENQKSCEPAVPFPCGRVSVSQTSKLTR
chain 2: VVGGEDAKPGQFPWQVVLNGKVDAFCGGSIVNEKWIVTAAHCVETGVKITVVAGEHNIEETEHTEQNRSVIRIIPHHNYSAAINKYNHDIALLELDEPLVLNSYVTPICIADKEYTNIFLKFGSGYVSGWGRVFHKGRSALVLQYLRVPLVDRATCLRSTKFTIYNNMFCAGFHEGGRDSCQGDSGGPHVTEVEGTSFLTGIISWGEECAMKGKYGIYTKVSRYVNWIKEKTKLT
For the protein B3, in the data set with Factor X (FX), P00742, the KM is 0.0965 µM and the kcat of FX activation by FIXa (Xase complex with FVIIIa, PC/PS vesicles, Ca2+) is 1.8 s⁻¹. Further, in the data set with Factor X, P00742, the “% of WT kcat/KM” value stood at 43%, the kcat was determined as 1.8 s⁻¹ and the kcat/KM was found to be 1.9e+07 M⁻¹ s⁻¹. Moreover, in data set [3], the K0.5-mut/K0.5-wt was 7.9 fold.

B4: FIXa variant R318Y/R338E/N346Y/R403E/E410N (mature FIX numbering) (protein)
chain 1: YNSGKLEEFVQGNLERECMEEKCSFEEAREVFENTERTTEFWKQYVDGDQCESNPCLNGGSCKDDINSYECWCPFGFEGKNCELDVTCNIKNGRCEQFCKNSADNKVVCSCTEGYRLAENQKSCEPAVPFPCGRVSVSQTSKLTR
chain 2: VVGGEDAKPGQFPWQVVLNGKVDAFCGGSIVNEKWIVTAAHCVETGVKITVVAGEHNIEETEHTEQKRNVIRIIPHHNYNAAINKYNHDIALLELDEPLVLNSYVTPICIADKEYTNIFLKFGSGYVSGWGRVFHKGYSALVLQYLRVPLVDRATCLESTKFTIYYNMFCAGFHEGGRDSCQGDSGGPHVTEVEGTSFLTGIISWGEECAMKGKYGIYTKVSEYVNWIKNKTKLT
As for B4, the K0.5-mut/K0.5-wt in data set [2] is 517.

B5: FIXa variant R318Y/R338E/T343R/N346D/R403E/E410N (mature FIX numbering) (protein)
chain 1: YNSGKLEEFVQGNLERECMEEKCSFEEAREVFENTERTTEFWKQYVDGDQCESNPCLNGGSCKDDINSYECWCPFGFEGKNCELDVTCNIKNGRCEQFCKNSADNKVVCSCTEGYRLAENQKSCEPAVPFPCGRVSVSQTSKLTR
chain 2: VVGGEDAKPGQFPWQVVLNGKVDAFCGGSIVNEKWIVTAAHCVETGVKITVVAGEHNIEETEHTEQKRNVIRIIPHHNYNAAINKYNHDIALLELDEPLVLNSYVTPICIADKEYTNIFLKFGSGYVSGWGRVFHKGYSALVLQYLRVPLVDRATCLESTKFRIYDNMFCAGFHEGGRDSCQGDSGGPHVTEVEGTSFLTGIISWGEECAMKGKYGIYTKVSEYVNWIKNKTKLT
In the case of B5, the K0.5-mut/K0.5-wt in data set [2] is 517.

B6: FIXa-K247N/N249S/N260S (protein)
chain 1: YNSGKLEEFVQGNLERECMEEKCSFEEAREVFENTERTTEFWKQYVDGDQCESNPCLNGGSCKDDINSYECWCPFGFEGKNCELDVTCNIKNGRCEQFCKNSADNKVVCSCTEGYRLAENQKSCEPAVPFPCGRVSVSQTSKLTR
chain 2: VVGGEDAKPGQFPWQVVLNGKVDAFCGGSIVNEKWIVTAAHCVETGVKITVVAGEHNIEETEHTEQNRSVIRIIPHHNYSAAINKYNHDIALLELDEPLVLNSYVTPICIADKEYTNIFLKFGSGYVSGWGRVFHKGRSALVLQYLRVPLVDRATCLRSTKFTIYNNMFCAGFHEGGRDSCQGDSGGPHVTEVEGTSFLTGIISWGEECAMKGKYGIYTKVSRYVNWIKEKTKLT
B6: in the data set with Factor X (FX), P00742, the KM was 0.114 µM and the kcat of FX activation by FIXa (Xase complex with FVIIIa, PC/PS vesicles, Ca2+) came to 3.3 s⁻¹. Also, the K0.5-mut/K0.5-wt in data set [3] was 8.1 fold.

B7: FIXa variant R318Y/R338E/Y345A/R403E/E410N (mature FIX numbering) (protein)
chain 1: YNSGKLEEFVQGNLERECMEEKCSFEEAREVFENTERTTEFWKQYVDGDQCESNPCLNGGSCKDDINSYECWCPFGFEGKNCELDVTCNIKNGRCEQFCKNSADNKVVCSCTEGYRLAENQKSCEPAVPFPCGRVSVSQTSKLTR
chain 2: VVGGEDAKPGQFPWQVVLNGKVDAFCGGSIVNEKWIVTAAHCVETGVKITVVAGEHNIEETEHTEQKRNVIRIIPHHNYNAAINKYNHDIALLELDEPLVLNSYVTPICIADKEYTNIFLKFGSGYVSGWGRVFHKGYSALVLQYLRVPLVDRATCLESTKFTIANNMFCAGFHEGGRDSCQGDSGGPHVTEVEGTSFLTGIISWGEECAMKGKYGIYTKVSEYVNWIKNKTKLT
B7: the K0.5-mut/K0.5-wt in data set [2] was found to be 517.

B8: FIXa variant R318Y/R338E/T343R/R403E/E410N (mature FIX numbering) (protein)
chain 1: YNSGKLEEFVQGNLERECMEEKCSFEEAREVFENTERTTEFWKQYVDGDQCESNPCLNGGSCKDDINSYECWCPFGFEGKNCELDVTCNIKNGRCEQFCKNSADNKVVCSCTEGYRLAENQKSCEPAVPFPCGRVSVSQTSKLTR
chain 2: VVGGEDAKPGQFPWQVVLNGKVDAFCGGSIVNEKWIVTAAHCVETGVKITVVAGEHNIEETEHTEQKRNVIRIIPHHNYNAAINKYNHDIALLELDEPLVLNSYVTPICIADKEYTNIFLKFGSGYVSGWGRVFHKGYSALVLQYLRVPLVDRATCLESTKFRIYNNMFCAGFHEGGRDSCQGDSGGPHVTEVEGTSFLTGIISWGEECAMKGKYGIYTKVSEYVNWIKNKTKLT
As to B8, the K0.5-mut/K0.5-wt in data set [2] is 517.

B9: FIXa variant R318Y/R338E/Y345A/N346D/R403E/E410N (mature FIX numbering) (protein)
chain 1: YNSGKLEEFVQGNLERECMEEKCSFEEAREVFENTERTTEFWKQYVDGDQCESNPCLNGGSCKDDINSYECWCPFGFEGKNCELDVTCNIKNGRCEQFCKNSADNKVVCSCTEGYRLAENQKSCEPAVPFPCGRVSVSQTSKLTR
chain 2: VVGGEDAKPGQFPWQVVLNGKVDAFCGGSIVNEKWIVTAAHCVETGVKITVVAGEHNIEETEHTEQKRNVIRIIPHHNYNAAINKYNHDIALLELDEPLVLNSYVTPICIADKEYTNIFLKFGSGYVSGWGRVFHKGYSALVLQYLRVPLVDRATCLESTKFTIADNMFCAGFHEGGRDSCQGDSGGPHVTEVEGTSFLTGIISWGEECAMKGKYGIYTKVSEYVNWIKNKTKLT
As to B9, in data set [2], the K0.5-mut/K0.5-wt was found to be 517.

The values are drawn from patent publication US20210238260.
